Source: patent US20250333514A1 (CDR LIFE, published 2025)

Tests used:
[1] = molecular target: HLA-A*02:01 loaded with PRAME peptide L2A (human, Complex captured as in Example 5 (biotinylated ligand); biotin site or tag not stated, not in the letters.); experiment: SPR (Biacore 8K), pMHC captured, Fab-scFv analyte
Procedure: (§1) Recombinantly produced hits in Fab-scFv format, as described in Example 4, were evaluated for their ability to bind HLA-A*02:01/PRAME antigen. Binding characterization was performed by surface plasmon resonance (SPR) using a Biacore™ 8k (Cytiva) device. Briefly, 3000 RU of Biotin CAPture reagent (Cytiva) was immobilized on a Series S Sensor Chip CAP (Cytiva) and the biotinylated ligand HLA-A*02:01/PRAME (SEQ ID NO: 68) was diluted in HPS-EP+ running buffer (TEKNOVA) and captured for 300 s at a flow rate of 2 μL/min at flow cell 2 resulting in a ligand capture level of >100 RU. Subsequently, at least three consecutive analyte injections were performed at suitable concentrations applying the single-cycle-kinetics mode at a flow rate of 30 μL/min with an association time of 90 s and the dissociation time set to >400 s. The chip surface was regenerated according to the manufacturer's instructions. After reference flow cell signal and blank injections subtraction, the data was fit to a 1:1 Langmuir binding model to determine the association rate constant kₐ and dissociation rate constant kd and calculate the equilibrium dissociation constant KD (kd/kₐ), also denoted as affinity, using the Biacore™ Insight Evaluation software.
(§2) The molecular recognition profile of monovalent (Fab-scFv) antigen binding molecules M3076 and M3287 for HLA-A*02:01/PRAME binding (equivalent bivalent (Fab-(scFv)₂) antigen binding molecules are M3167 and M3292, respectively) were determined by SPR measurements with HLA-A*02:01 complexes loaded with PRAME peptide or peptides containing a single amino acid substitution to alanine, arginine or aspartic acid. The kinetic parameters for each HLA-A*02:01 complex loaded with a peptide was determined by SPR, according to the previously described method in Example 5.

[2] = molecular target: HLA-A*02:01 loaded with PRAME peptide H5A (human, Complex captured as in Example 5 (biotinylated ligand); biotin site or tag not stated, not in the letters.); experiment: SPR (Biacore 8K), pMHC captured, Fab-scFv analyte
Procedure: as §1, §2

[3] = molecular target: HLA-A*02:01 loaded with PRAME peptide I7A (human, Complex captured as in Example 5 (biotinylated ligand); biotin site or tag not stated, not in the letters.); experiment: SPR (Biacore 8K), pMHC captured, Fab-scFv analyte
Procedure: as §1, §2

[4] = molecular target: T1, HLA-A*02:01/PRAME antigen (recombinant, … on HLA-A*02:01) (human, Complex biotinylated for SPR capture; site of biotin and any tag not stated, not in the letters.); experiment: SPR (Biacore 8K), pMHC captured, Fab-scFv analyte
T1 construct: also called PRAME target; pMHC
Procedure: as §1, §2

[5] = molecular target: HLA-A*02:01 loaded with PRAME peptide S1D (human, pMHC ligand was biotinylated for capture (Example 5); site or tag of biotinylation not disclosed); experiment: SPR (Biacore 8K), pMHC captured, Fab-scFv analyte
Procedure: as §1, §2

[6] = molecular target: HLA-A*02:01 loaded with PRAME peptide L2D (human, pMHC ligand was biotinylated for capture (Example 5); site or tag of biotinylation not disclosed); experiment: SPR (Biacore 8K), pMHC captured, Fab-scFv analyte
Procedure: as §1, §2

[7] = molecular target: HLA-A*02:01 loaded with PRAME peptide L3D (human, pMHC ligand was biotinylated for capture (Example 5); site or tag of biotinylation not disclosed); experiment: SPR (Biacore 8K), pMHC captured, Fab-scFv analyte
Procedure: as §1, §2

[8] = molecular target: HLA-A*02:01 loaded with PRAME peptide Q4D (human, pMHC ligand was biotinylated for capture (Example 5); site or tag of biotinylation not disclosed); experiment: SPR (Biacore 8K), pMHC captured, Fab-scFv analyte
Procedure: as §1, §2

[9] = molecular target: HLA-A*02:01 loaded with PRAME peptide H5D (human, pMHC ligand was biotinylated for capture (Example 5); site or tag of biotinylation not disclosed); experiment: SPR (Biacore 8K), pMHC captured, Fab-scFv analyte
Procedure: as §1, §2

[10] = molecular target: HLA-A*02:01 loaded with PRAME peptide L6D (human, Complex was biotinylated for capture on the SPR chip; site or tag of biotinylation not disclosed and not in the letters.); experiment: SPR (Biacore 8K), pMHC captured, Fab-scFv analyte
Procedure: as §1, §2

[11] = molecular target: HLA-A*02:01 loaded with PRAME peptide I7D (human, Complex was biotinylated for capture on the SPR chip; site or tag of biotinylation not disclosed and not in the letters.); experiment: SPR (Biacore 8K), pMHC captured, Fab-scFv analyte
Procedure: as §1, §2

[12] = molecular target: HLA-A*02:01 loaded with PRAME peptide G8D (human, Complex was biotinylated for capture on the SPR chip; site or tag of biotinylation not disclosed and not in the letters.); experiment: SPR (Biacore 8K), pMHC captured, Fab-scFv analyte
Procedure: as §1, §2

[13] = molecular target: HLA-A*02:01 loaded with PRAME peptide L9D (human, Complex was biotinylated for capture on the SPR chip; site or tag of biotinylation not disclosed and not in the letters.); experiment: SPR (Biacore 8K), pMHC captured, Fab-scFv analyte
Procedure: as §1, §2

[14] = molecular target: T1, HLA-A*02:01/PRAME antigen (recombinant, …); experiment: SPR (Biacore 8K), biotinylated pMHC captured, Fab-scFv analyte, single-cycle kinetics, 1:1 fit
Procedure: as §1

Binder	Kd [1]	Kd [2]	Kd [3]	Kd [4]	Kd [5]	binding result [6]	Kd [7]	Kd [8]	Kd [9]	binding result [10]	binding result [11]	binding result [12]	Kd [13]	Kd [14]
M3076 (bispecific antibody, Humanized variant of M2638, monovalent Fab-scFv; bivalent equivalent is M3167) heavy: EVQLVESGGGLVQPGGSLRLSCAASGFTFSTYAMNWVRQAPGKGLEWVGRIRSKYNNYATYYADSVKGRFTISRDDSKNTLYLQMNSLRAEDTAVYYCVRHGNFGDSYVSWFAYWGQGTLVTVSSASTKGPSVFPLAPSSKSTSGGTAALGCLVKDYFPEPVTVSWNSGALTSGVHTFPAVLQSSGLYSLSSVVTVPSSSLGTQTYICNVNHKPSNTKVDKKVEPKSCGGGGSDIQMTQSPSSLSASVGDRVTITCRSSQSVYNNLLGWYQQKPGKAPKLLIYSASTLASGVPSRFSGSGSGTDFTLTISSLQPEDFATYYCQGTYYNGDWYYPFGCGTKVEIKGGGGSGGGGSGGGGSGGGGSQVQLVESGGGSVQPGRSLRLSCAASGFDFSTYGVSWVRQAPGKCLEWIGYIDPVYGSTHYADSVKGRFTISRDNSKNTLYLQMNSLRAEDTASYYCVRDLYAGSSGYYMIYSLWGQGTSVTVSS light: QAVVTQEPSLTVSPGGTVTLTCGSSTGAVTTSNYANWVQQKPGKSPRGLIGGTNKRAPGVPARFSGSLLGGKAALTISGAQPEDEADYYCALWYSNHWVFGGGTKLTVLGQPKAAPSVTLFPPSSEELQANKATLVCLISDFYPGAVTVAWKADSSPVKAGVETTTPSKQSNNKYAASSYLSLTPEQWKSHRSYSCQVTHEGSTVEKTVAPTECS	0.07 nM	3 nM	31 nM	0.08 nM	0.06 nM	no binding	0.09 nM	0.34 nM	0.44 nM	no binding	no binding	no binding	0.83 nM	0.07 nM
M3287 (bispecific antibody, Humanized variant of M2638, monovalent Fab-scFv; bivalent equivalent is M3292) heavy: EVQLVESGGGLVQPGGSLRLSCAASGFTFSTYAMNWVRQAPGKGLEWVGRIRSKYNNYATYYADSVKGRFTISRDDSKNTLYLQMNSLRAEDTAVYYCVRHGNFGDSYVSWFAYWGQGTLVTVSSASTKGPSVFPLAPSSKSTSGGTAALGCLVKDYFPEPVTVSWNSGALTSGVHTFPAVLQSSGLYSLSSVVTVPSSSLGTQTYICNVNHKPSNTKVDKKVEPKSCGGGGSDIQMTQSPSSLSASVGDRVTITCRSSQSVYNNLLGWYQQKPGKAPKLLIYSASTLASGVPSRFSGSGSGTDFTLTISSLQPEDSATYYCQGTYYTGDWYYPFGCGTKVEIKGGGGSGGGGSGGGGSGGGGSQVQLVESGGGSVQPGRSLRLSCAASGFDFSTYGVSWVRQAPGKCLEWIGYIDPVYGSTHYADSVKGRFTISRDNSKNTLYLQMNSLRAEDTASYYCVRDLYAGSSGYYVIYSLWGQGTSVTVSS light: QAVVTQEPSLTVSPGGTVTLTCGSSTGAVTTSNYANWVQQKPGKSPRGLIGGTNKRAPGVPARFSGSLLGGKAALTISGAQPEDEADYYCALWYSNHWVFGGGTKLTVLGQPKAAPSVTLFPPSSEELQANKATLVCLISDFYPGAVTVAWKADSSPVKAGVETTTPSKQSNNKYAASSYLSLTPEQWKSHRSYSCQVTHEGSTVEKTVAPTECS	0.62 nM	16 nM	100 nM	0.57 nM	0.53 nM	no binding	0.63 nM	3.4 nM	4.6 nM	no binding	no binding	no binding	2.7 nM	0.57 nM
